# Test results taken from patent publication US20250368744A1 (CONCEPT TO MEDICINE BIOTECH, published 2025).
# Residue numbers refer to the chain shown, from its start.
# T1: human CCR4 (human, UniProt P51679 1-360)
# T1 construct: whole, on cells; also called hCCR4
# T1 sequence (looked up): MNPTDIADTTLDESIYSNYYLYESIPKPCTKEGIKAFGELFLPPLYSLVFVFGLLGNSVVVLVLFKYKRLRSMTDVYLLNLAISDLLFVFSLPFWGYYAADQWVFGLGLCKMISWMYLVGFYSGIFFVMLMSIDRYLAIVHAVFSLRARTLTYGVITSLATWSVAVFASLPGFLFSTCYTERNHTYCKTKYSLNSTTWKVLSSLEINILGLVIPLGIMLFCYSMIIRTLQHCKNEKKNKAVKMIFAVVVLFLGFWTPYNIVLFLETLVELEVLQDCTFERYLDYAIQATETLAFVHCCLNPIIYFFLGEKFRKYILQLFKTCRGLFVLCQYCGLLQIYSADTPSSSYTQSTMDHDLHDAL
# B1: 99D1-1E11 (antibody, V domains shown)
# VH: DLQLKESGPGLVKPSQSLSLTCSVTGYSITSGYYWNWIRQFPGNKLEWMGYISYDGSNNYNPSLKTRISITRDTSKNQFFLKLNSVTSEDTATYYCVRERGLLLGHFDVWGTGTTVTVSS
# VL: DIQMTQSSSYLSVALGGRVTITCKASDHINNRLAWYQQKPGNAPRLLISGATKLETGIPSRFRGSGSGKDYTLSIFSLQTEDVATYYCQQYWSTSYTFGGGTKLELR
# notes: tested as chimeric mAb
# B2: 115C5E3B8 (antibody, V domains shown)
# VH: DVQLQESGPGLVKPSQSLSLTCSVTGYSITSGYYWNWIRQFPGNKLEWMGYISYDGYNDYNPSLKNRISITRDTSKNQFFLKLNSVTTEDTATYYCARETGLRKAWFAYWGQGTLVTVSG
# VL: DIQMTQSSSYLSVSLGGRVTITCKASDHINNRLAWYQQKPGNAPRLLISDTSSLETGVPSRFSGSGSGKDYTLRITSLQTEDVATYYCQQYWGTPYTFGGGTKLEIK
# notes: tested as chimeric mAb
# B3: Hu195H8D10-7 (antibody, V domains shown)
# VH: EVQLVESGGGLVQPGGSLRLSCAASGFNFNTYVMNWVRQAPGKGLEWVARIRTKSNNYATYYADSVKDRFTISRDDSKNSLYLQMNSLKTEDTAVYYCVSGTITRLGGGLDYWGQGTLVTVSS
# VL: DIVMTQSPLSLPVTPGEPASISCRSSKRLLHSNGNTYLYWYLQKPGQSPQLLIYRMSNLASGVPDRFSGSGSGTAFTLKISRVEAEDVGVYYCMQHLEYPFTFGGGTKLEIK
# notes: humanized
# B4: Hu195H8D10-3 (antibody, V domains shown)
# VH: B3 VH with A49G, V99A, S100R
# VL: B3 VL
# notes: humanized
# B5: Hu195H8D10-4 (antibody, V domains shown)
# VH: B3 VH with A49G, V99A, S100R
# VL: B3 VL with Y41F
# notes: humanized
# B6: Hu195H8D10-6 (antibody, V domains shown)
# VH: B3 VH
# VL: B3 VL with Y41F, A75D
# notes: humanized
# B7: Hu195H8D10-8 (antibody, V domains shown)
# VH: B3 VH
# VL: B3 VL with Y41F
# notes: humanized
# B8: Hu195H8D10-10 (antibody, V domains shown)
# VH: B3 VH with N79S
# VL: B3 VL with Y41F, A75D
# notes: humanized
# B9: Hu195H8D10-11 (antibody, V domains shown)
# VH: B3 VH with N79S
# VL: B3 VL
# notes: humanized
# B10: Hu195H8D10-15 (antibody, V domains shown)
# VH: B3 VH with K78E, N79S, V95M
# VL: B3 VL
# notes: humanized
# B11: Hu195H8D10-16 (antibody, V domains shown)
# VH: B3 VH with K78E, N79S, V95M
# VL: B3 VL with Y41F
# notes: humanized
# B12: Hu200C9B9-3 (antibody, V domains shown)
# VH: B3 VH with N28S, A49G, Y61F, A63V, V99A, S100R, G108A
# VL: B3 VL with R28S
# notes: humanized
# B13: Hu200C9B9-4 (antibody, V domains shown)
# VH: B3 VH with N28S, A49G, Y61F, A63V, V99A, S100R, G108A
# VL: B3 VL with R28S, Y41F
# notes: humanized
# B14: Hu200C9B9-6 (antibody, V domains shown)
# VH: B3 VH with N28S, Y61F, A63V, G108A
# VL: B3 VL with R28S, Y41F, A75D
# notes: humanized
# B15: Hu200C9B9-7 (antibody, V domains shown)
# VH: B3 VH with N28S, Y61F, A63V, G108A
# VL: B3 VL with R28S
# notes: humanized
# B16: Hu200C9B9-9 (antibody, V domains shown)
# VH: B3 VH with N28S, E46N, Y61F, A63V, G108A
# VL: B3 VL with R28S, A75D
# notes: humanized
# B17: Hu200C9B9-13 (antibody, V domains shown)
# VH: B3 VH with N28S, E46N, Y61F, A63V, K78E, G108A
# VL: B3 VL with R28S, A75D
# notes: humanized
# B18: Hu200C9B9-16 (antibody, V domains shown)
# VH: B3 VH with N28S, E46N, Y61F, A63V, K78E, G108A
# VL: B3 VL with R28S, Y41F
# notes: humanized
# B19: Hu195H8D10-5 (antibody, V domains shown)
# VH: B3 VH
# VL: B3 VL with A75D
# notes: humanized
# B20: Hu195H8D10-1 (antibody, V domains shown)
# VH: B3 VH with A49G, V99A, S100R
# VL: B3 VL with A75D
# notes: humanized
# B21: Hu195H8D10-2 (antibody, V domains shown)
# VH: B3 VH with A49G, V99A, S100R
# VL: B3 VL with Y41F, A75D
# notes: humanized
# B22: Hu195H8D10-9 (antibody, V domains shown)
# VH: B3 VH with N79S
# VL: B3 VL with A75D
# notes: humanized
# B23: Hu195H8D10-12 (antibody, V domains shown)
# VH: B3 VH with N79S
# VL: B3 VL with Y41F
# notes: humanized
# B24: Hu195H8D10-13 (antibody, V domains shown)
# VH: B3 VH with K78E, N79S, V95M
# VL: B3 VL with A75D
# notes: humanized
# B25: Hu195H8D10-14 (antibody, V domains shown)
# VH: B3 VH with K78E, N79S, V95M
# VL: B3 VL with Y41F, A75D
# notes: humanized
# B26: Hu200C9B9-1 (antibody, V domains shown)
# VH: B3 VH with N28S, A49G, Y61F, A63V, V99A, S100R, G108A
# VL: B3 VL with R28S, A75D
# notes: humanized
# B27: Hu200C9B9-2 (antibody, V domains shown)
# VH: B3 VH with N28S, A49G, Y61F, A63V, V99A, S100R, G108A
# VL: B3 VL with R28S, Y41F, A75D
# notes: humanized
# B28: Hu200C9B9-5 (antibody, V domains shown)
# VH: B3 VH with N28S, Y61F, A63V, G108A
# VL: B3 VL with R28S, A75D
# notes: humanized
# B29: Hu200C9B9-8 (antibody, V domains shown)
# VH: B3 VH with N28S, Y61F, A63V, G108A
# VL: B3 VL with R28S, Y41F
# notes: humanized
# B30: Hu200C9B9-10 (antibody, V domains shown)
# VH: B3 VH with N28S, E46N, Y61F, A63V, G108A
# VL: B3 VL with R28S, Y41F, A75D
# notes: humanized
# B31: Hu200C9B9-11 (antibody, V domains shown)
# VH: B3 VH with N28S, E46N, Y61F, A63V, G108A
# VL: B3 VL with R28S
# notes: humanized
# B32: Hu200C9B9-12 (antibody, V domains shown)
# VH: B3 VH with N28S, E46N, Y61F, A63V, G108A
# VL: B3 VL with R28S, Y41F
# notes: humanized
# B33: Hu200C9B9-14 (antibody, V domains shown)
# VH: B3 VH with N28S, E46N, Y61F, A63V, K78E, G108A
# VL: B3 VL with R28S, Y41F, A75D
# notes: humanized
# B34: Hu200C9B9-15 (antibody, V domains shown)
# VH: B3 VH with N28S, E46N, Y61F, A63V, K78E, G108A
# VL: B3 VL with R28S
# notes: humanized
# Legend:
# human CCR4 = molecular target: T1, human CCR4; test: FACS, CHO-K1 hCCR4 cells
# Protocol: (§1) Briefly, HEK293 hCCR8 cell line, CHO-K1 cyno CCR8 cell line or CHO-K1 hCCR4 cell line was first incubated with 5-fold serially diluted and 8 doses with the above 10 chimeric Abs and hlgG1 control starting from 100 nM at 4° C. for 30 mins. After washing by FACS buffer, PE Goat anti-Human IgG Fc Secondary Antibody (eBioscience™, Invitrogen) was added to each well and incubated at 4° C. for 30 mins. Samples were washed twice with FACS buffer. The mean florescence intensity (MFI) of PE was evaluated by MACSQuant Analyzer 16.
# [1] = molecular target: T2, human C-C motif chemokine receptor 8 (CCR8) (human, UniProt P51685 1-355); test: FACS (MFI-PE) on HEK293 hCCR8 cells
# T2 construct: whole, on cells; also called human CCR8; hCCR8
# Protocol: as §1
# cyno CCR8 = molecular target: T3, cyno CCR8 (cynomolgus, UniProt G7NYJ2 1-355); test: FACS (MFI-PE) on CHO-K1 cyno CCR8 cells
# T3 construct: whole, on cells; also called cynomolgus CCR8 protein
# Protocol: as §1
# [2] = molecular target: T2, human C-C motif chemokine receptor 8 …; test: cell-based or functional assay
# [3] = molecular target: T2, human C-C motif chemokine receptor 8 …; test: cell-based or functional assay; remark: listed apart in the source
# [4] = molecular target: T2, human C-C motif chemokine receptor 8 …; test: FACS (MFI-PE) on CHO-K1 hCCR8 cells, bars at five doses
# Protocol: PE Goat anti-Human IgG Fc Secondary Antibody (eBioscience™, Invitrogen) was added to each well and incubated at 4° C. for 30 mins. Samples were washed twice with FACS buffer. The mean florescence intensity (MFI) of PE was evaluated by MACSQuant Analyzer 16.
# T2 sequence (P51685 whole entry): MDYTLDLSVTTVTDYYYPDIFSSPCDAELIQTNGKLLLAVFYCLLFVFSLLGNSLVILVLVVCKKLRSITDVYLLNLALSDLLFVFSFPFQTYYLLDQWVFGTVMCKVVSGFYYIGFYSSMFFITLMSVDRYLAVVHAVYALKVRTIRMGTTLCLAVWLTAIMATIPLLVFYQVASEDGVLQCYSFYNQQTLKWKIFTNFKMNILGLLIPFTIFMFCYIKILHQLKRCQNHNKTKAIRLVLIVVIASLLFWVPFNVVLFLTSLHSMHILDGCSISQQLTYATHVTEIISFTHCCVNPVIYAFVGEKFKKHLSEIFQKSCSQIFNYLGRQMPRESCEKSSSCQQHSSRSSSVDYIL
# T3 sequence (G7NYJ2 entry or part of it): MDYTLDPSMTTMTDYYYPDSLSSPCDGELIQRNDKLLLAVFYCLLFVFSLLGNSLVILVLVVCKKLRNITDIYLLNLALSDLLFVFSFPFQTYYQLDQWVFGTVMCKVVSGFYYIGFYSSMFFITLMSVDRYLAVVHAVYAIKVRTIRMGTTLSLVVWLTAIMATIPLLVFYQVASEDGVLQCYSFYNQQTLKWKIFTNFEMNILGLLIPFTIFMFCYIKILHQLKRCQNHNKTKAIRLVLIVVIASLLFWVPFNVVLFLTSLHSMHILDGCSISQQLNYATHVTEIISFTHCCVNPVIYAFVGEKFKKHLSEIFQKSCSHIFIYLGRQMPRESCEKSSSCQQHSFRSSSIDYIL
Binder,binding result [4],other results
B1,–,binding result (human CCR4): no binding (tested: 100 nM (highest concentration tested)); EC50 [1]: 0.101 nM; EC50 (cyno CCR8): 0.0942 nM
B2,–,"binding result (human CCR4): no binding (tested: 100 nM (highest concentration tested)); IC50, hCCL1-induced beta-arrestin recruitment (RLU), CHO-K1 hCCR8 cells [2]: 2.28 nM; IC50, hCCL1-induced Ca2+ flux (stimulation %), Chem-1 hCCR8 cells [upper graph] [3]: 17.8 nM; EC50 [1]: 0.126 nM"
B3,binds,–
B4,binds,–
B5,binds,–
B6,binds,–
B7,binds,–
B8,binds,–
B9,binds,–
B10,binds,–
B11,binds,–
B12,binds,–
B13,binds,–
B14,binds,–
B15,binds,–
B16,binds,–
B17,binds,–

Binder,binding result [4],other results
B18,binds,–
B19,binds,–
B20,binds,–
B21,binds,–
B22,binds,–
B23,binds,–
B24,binds,–
B25,binds,–
B26,binds,–
B27,binds,–
B28,binds,–
B29,binds,–
B30,binds,–
B31,binds,–
B32,binds,–
B33,binds,–
B34,binds,–
